The values below come from paper PMC6328869, “Functional and structural studies of tolloid-like 1 mutants associated with atrial-septal defect 6” (Bioscience Reports, 2018).

The target in assay [1] is T1, recombinant murine chordin (murine, UniProt Q9Z0E2 27-948).
T1 construct: Chordin, murine, recombinant (R&D Systems); The source and species of chordin are told for the cleavage assay; source: bought: R&D Systems
T1 sequence (looked up): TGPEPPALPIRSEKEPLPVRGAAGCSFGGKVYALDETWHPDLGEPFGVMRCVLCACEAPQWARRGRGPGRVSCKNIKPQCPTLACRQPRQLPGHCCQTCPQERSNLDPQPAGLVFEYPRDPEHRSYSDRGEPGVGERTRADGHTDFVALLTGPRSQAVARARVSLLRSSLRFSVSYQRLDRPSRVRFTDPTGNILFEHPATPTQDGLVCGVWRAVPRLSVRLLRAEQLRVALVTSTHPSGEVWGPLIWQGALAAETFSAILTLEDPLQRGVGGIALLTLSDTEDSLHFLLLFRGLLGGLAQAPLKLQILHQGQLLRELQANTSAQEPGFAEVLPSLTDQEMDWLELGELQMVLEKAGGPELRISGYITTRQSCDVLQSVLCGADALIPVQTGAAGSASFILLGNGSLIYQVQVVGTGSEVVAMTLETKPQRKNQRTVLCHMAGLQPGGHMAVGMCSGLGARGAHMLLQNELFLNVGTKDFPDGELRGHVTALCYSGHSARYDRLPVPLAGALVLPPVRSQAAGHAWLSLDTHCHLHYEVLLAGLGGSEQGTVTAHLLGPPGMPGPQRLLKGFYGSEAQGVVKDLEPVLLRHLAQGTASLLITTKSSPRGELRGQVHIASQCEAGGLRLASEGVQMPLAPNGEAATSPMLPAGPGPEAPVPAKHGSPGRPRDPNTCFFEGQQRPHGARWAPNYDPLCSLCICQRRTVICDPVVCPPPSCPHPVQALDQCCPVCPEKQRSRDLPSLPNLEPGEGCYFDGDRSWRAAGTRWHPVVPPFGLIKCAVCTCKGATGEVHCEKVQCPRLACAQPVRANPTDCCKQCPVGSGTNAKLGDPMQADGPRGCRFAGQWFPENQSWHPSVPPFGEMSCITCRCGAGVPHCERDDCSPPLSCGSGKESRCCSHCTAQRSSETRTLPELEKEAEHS
The assay is described as follows: SPR; Sensiq Pioneer biosensor; chordin amine-coupled (NHS/EDC, 10 mM acetate pH 4.5) to a COOH1 SPR chip; TLL1 variant as free analyte at 10-400 nM, 10 ul/min for 11 min; HBS-TE (HEPES-buffered saline, 0.005% Tween 20), 25 °C; regeneration with 10 mM HCl; global fitting; Kd from koff/kon. As to conditions: both partners purified. For orientation: Surface plasmon resonance follows binding to a sensor surface in real time, without labels.

The target in assay [2] is T1, recombinant murine chordin. As to the kind of experiment: cell-based or functional assay.

Residue numbers refer to the chain shown, from its start.

Broadly, the Kd is the equilibrium constant for the complex coming apart. Broadly, the koff is a measure of how fast the partners let go of each other. The kon is a measure of how fast the partners come together.

B1: recombinant wild-type mammalian tolloid-like 1 (TLL1) (enzyme, human, UniProt O43897-1 148-1013, looked up)
chain: AATSRTERIWPGGVIPYVIGGNFTGSQRAMFKQAMRHWEKHTCVTFIERSDEESYIVFTYRPCGCCSYVGRRGNGPQAISIGKNCDKFGIVVHELGHVIGFWHEHTRPDRDNHVTIIRENIQPGQEYNFLKMEPGEVNSLGERYDFDSIMHYARNTFSRGMFLDTILPSRDDNGIRPAIGQRTRLSKGDIAQARKLYRCPACGETLQESNGNLSSPGFPNGYPSYTHCIWRVSVTPGEKIVLNFTTMDLYKSSLCWYDYIEVRDGYWRKSPLLGRFCGDKLPEVLTSTDSRMWIEFRSSSNWVGKGFAAVYEAICGGEIRKNEGQIQSPNYPDDYRPMKECVWKITVSESYHVGLTFQSFEIERHDNCAYDYLEVRDGTSENSPLIGRFCGYDKPEDIRSTSNTLWMKFVSDGTVNKAGFAANFFKEEDECAKPDRGGCEQRCLNTLGSYQCACEPGYELGPDRRSCEAACGGLLTKLNGTITTPGWPKEYPPNKNCVWQVVAPTQYRISVKFEFFELEGNEVCKYDYVEIWSGLSSESKLHGKFCGAEVPEVITSQFNNMRIEFKSDNTVSKKGFKAHFFSDKDECSKDNGGCQHECVNTMGSYMCQCRNGFVLHDNKHDCKEAECEQKIHSPSGLITSPNWPDKYPSRKECTWEISATPGHRIKLAFSEFEIEQHQECAYDHLEVFDGETEKSPILGRLCGNKIPDPLVATGNKMFVRFVSDASVQRKGFQATHSTECGGRLKAESKPRDLYSHAQFGDNNYPGQVDCEWLLVSERGSRLELSFQTFEVEEEADCGYDYVELFDGLDSTAVGLGRFCGSGPPEEIYSIGDSVLIHFHTDDTINKKGFHIRYKSIRYPDTTHTKK
notes: Human tolloid-like 1 (TLL1), functional enzyme lacking the signal peptide and the latency pro-domain; encoded by nucleotides 1089-3686 of NM_012464.4 (mRNA variant 1 TLL1); Expressed behind the signal peptide of the procollagen I alpha 1 chain (nucleotides 5127-5192 of NM_007400.1 as printed) for secretion; also called WT; native TLL1; source: HT-1080 cells, stably transfected (pIRESneo3), …
With B1, in assay [1], the Ka was 8.6e+06 M⁻¹, the Kd is 0.117 µM, the koff came out at 0.000305 s⁻¹ and the kon turned out to be 2600 M⁻¹ s⁻¹.

B2: recombinant TLL1 mutated variant I629V (enzyme, human, UniProt O43897-1 148-1013, looked up)
chain: B1 chain with I482V
notes: Human tolloid-like 1 (TLL1), functional enzyme lacking the signal peptide and the latency pro-domain; encoded by nucleotides 1089-3686 of NM_012464.4 (mRNA variant 1 TLL1); mutation found in ASD6 patients, in the CUB3 domain; Same construct as m1 (procollagen I alpha 1 signal peptide for secretion, C-terminal 7xHis) with the point mutation; also called Ile629Val; mutation 3; source: HT-1080 …
On to B2, for which, in assay [1], the Ka was determined as 41000 M⁻¹, the Kd stood at 25 µM, the dissociation rate constant (koff) was 0.00091 s⁻¹ and the kon was 37 M⁻¹ s⁻¹. Moreover, the “cleavage of chordin (densitometry of the intact chordin band after SDS/PAGE), activity against wild-type TLL1” value in assay [2] was ~25 % lower than wild-type TLL1.

B3: recombinant TLL1 mutated variant M182L (enzyme, human, UniProt O43897-1 148-1013, looked up)
chain: B1 chain with M35L
notes: Human tolloid-like 1 (TLL1), functional enzyme lacking the signal peptide and the latency pro-domain; encoded by nucleotides 1089-3686 of NM_012464.4 (mRNA variant 1 TLL1); mutation found in ASD6 patients, in the catalytic domain; Same construct as m1 (procollagen I alpha 1 signal peptide for secretion, C-terminal 7xHis) with the point mutation; also called Met182Leu; mutation 1; source: HT-1080 …
With B3, in assay [1], the Ka was found to be 24000 M⁻¹, the Kd came out at 42 µM, the koff came out at 0.0018 s⁻¹ and the kon was found to be 43 M⁻¹ s⁻¹. Moreover, the “cleavage of chordin (densitometry of the intact chordin band after SDS/PAGE), activity against wild-type TLL1” value in assay [2] is 50 % lower than wild-type TLL1.

B4: recombinant TLL1 mutated variant V238A (enzyme, human, UniProt O43897-1 148-1013, looked up)
chain: B1 chain with V91A
notes: Human tolloid-like 1 (TLL1), functional enzyme lacking the signal peptide and the latency pro-domain; encoded by nucleotides 1089-3686 of NM_012464.4 (mRNA variant 1 TLL1); mutation found in ASD6 patients, in the catalytic domain; Same construct as m1 (procollagen I alpha 1 signal peptide for secretion, C-terminal 7xHis) with the point mutation; also called Val238Ala; mutation 2; source: HT-1080 …
Consider B4, for which, in assay [1], the Ka was found to be 55000 M⁻¹, the Kd was 18 µM, the koff was found to be 0.0006 s⁻¹ and the kon worked out at 33 M⁻¹ s⁻¹. The “cleavage of chordin (densitometry of the intact chordin band after SDS/PAGE), activity against wild-type TLL1” value in assay [2] is ~25 % lower than wild-type TLL1.
